# The supplement of paper PMC9170038
# System: MS2 coat protein
# Assay: apparent KD of MS2 coat protein; higher = weaker reporter binding
# Conditions: Eterna round: R107
# Procedure, shortened: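 SNAP-549-labelled MS2 coat protein was titrated onto designed RNA switches that had been transcribed on-chip from Illumina sequencing clusters. Amounts doubled from 0.7 or 1.5 nM to 3 µM in 100 mM Tris-HCl pH 7.5, 80 mM KCl, 4 mM MgCl2, with constant ligand or without. Apparent KD is the median per design of normalised cluster binding-curve fits.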
# [1] = input ligand: theophylline 20 uM
# [2] = input ligand: theophylline 2 mM
# [3] = input ligand: tryptophan 2.4 mM
Sequence,apparent KD of MS2 coat protein (input ligand: arginine 13.2 mM) [nM],apparent KD of MS2 coat protein (input ligand: none) [nM],apparent KD of MS2 coat protein [1] [nM],apparent KD of MS2 coat protein [2] [nM],apparent KD of MS2 coat protein [3] [nM]
AGACGAGAAGAGGAUUACCCAUGUACAGAAGGAGCGUCGUUGACGACAGGUAGGUCGCUGAGAACAUGAGGAUCACCCAUGUUGA [Arg A Ex t1],29.9,42.9,53.9,39.8,36
AGAUUCGACACGGCCGCCACUCGAGACGGAUUUCCGAGUGUCGAACAUGAGGAUCACCCAUGUCCGAGGACCGGGUGUUGAGUCU [XTryp B #10],24.3,–,42.8,51.1,–
AGAUUCGACACGGCCGCCACUCGUGACGGAUUUCCGAGUGUCGAACAUGAGGAUCACCCAUGUCCGAGGACCGGGUGUUGAGUCU [XTryp B #12],33.7,–,43.8,55.9,–
AGAUUCGACACGGCCGCCACUCGUGGAGGAUUUCCGAGUGUCGAACAUGAGGAUCACCCAUGUACGAGGACCGGGUGUUGAGUCU [XTryp B #14],21.1,–,43.4,32.2,–
AGCACUGUGACGGCCGCCACUACAUAACAUGGGUGGUCAGGUUCAUUACAUGAGGAUCACCCAUGUAGGACCGGGUCUCAGUGCA [Omei Trp Exc B A v11],12.1,–,17.7,12.6,–
AGCCACUCGAGUGAUCCUCACGAGUGGCAACGAGGACCGGUACGGCCGCCACUCGAAUAAACAUGAGGAUCACCCAUGUAAUAAU [T''-M-T'-T-MS2],13.6,–,152,683,–
AGCCCUGUACUAGAUACCAGCUACAUGAGGAUCACCCAUGUGCGUCAAGACUGACUGUGUGGCCCUUGGCAGCUGCUCGCAUGUA [Exclusion - Theophylline B (Freestyle 1)],50.6,–,191,–,168
AGCGCUAUGCAUGAUACCAGCUACAUGAGGAUCACCCAUGUGCGUCAGAAAUGACUGUGUAGCCCUUGGCAGCAUAAAGCAUGUA [Exclusion - Theophylline B (Freestyle 9)],19.4,–,24.1,–,17.2
AGCGGAACGGAAGGGUCCCAAAAUUGUGAUACCAGCCUUGAAUCCGGCCCUUGGCAGCACAUGAGGAUCACCCAUGUACUGCGAU [Laanor],11.2,–,19.2,–,12.8
AGCUCGACUCGCAGCUGGAUGCCCGCUUGCCGAGGACCGGUACGGCCGCCACUCGUCACUCGACAUGAGGAUCACCCAUGUGAUA [theeternabot_exclusion_MS2_Trp_A_32],36.3,–,136,140,–
AGGAGACAUGAGGAUCACCCAUGUCCAGAUACCAGAAUGUCUUUGUUCCCUUGGCAGCUGUGGAAAUCUGACCUGCCUCGGUCUG [theeternabot_sameState_MS2_Theo_A_31],14.6,–,17.9,–,15.2
AGUAGACACGCGGCCGCCACUUGAGGAUCACCCAGGUGGUGUGUACUUGAAAACAAGUGCACAUCAAGGACCGGGCGUGUCUACA [Omei Tryp B SS D v2],12.9,–,17.1,13.9,27.3
AGUUCCAGGUCGGCCGCCACUGGCAUGGCCGGUCCUCGGACUUACAUGAGGAUCACCCAUGUGAACAGGACCGGGACCGCAUGGG [Exclusion Tryptophan B GF 24],26.1,–,46.1,57.2,–
